In patent US20110071089A1:

Key:
[1] = target: T1, human TRPV6b expressed in LnCaP cells (transfected with pCAGS-IRES-hTRPV6b) (human), Q9H1D0; experiment: cell-based or functional assay
T1 chain: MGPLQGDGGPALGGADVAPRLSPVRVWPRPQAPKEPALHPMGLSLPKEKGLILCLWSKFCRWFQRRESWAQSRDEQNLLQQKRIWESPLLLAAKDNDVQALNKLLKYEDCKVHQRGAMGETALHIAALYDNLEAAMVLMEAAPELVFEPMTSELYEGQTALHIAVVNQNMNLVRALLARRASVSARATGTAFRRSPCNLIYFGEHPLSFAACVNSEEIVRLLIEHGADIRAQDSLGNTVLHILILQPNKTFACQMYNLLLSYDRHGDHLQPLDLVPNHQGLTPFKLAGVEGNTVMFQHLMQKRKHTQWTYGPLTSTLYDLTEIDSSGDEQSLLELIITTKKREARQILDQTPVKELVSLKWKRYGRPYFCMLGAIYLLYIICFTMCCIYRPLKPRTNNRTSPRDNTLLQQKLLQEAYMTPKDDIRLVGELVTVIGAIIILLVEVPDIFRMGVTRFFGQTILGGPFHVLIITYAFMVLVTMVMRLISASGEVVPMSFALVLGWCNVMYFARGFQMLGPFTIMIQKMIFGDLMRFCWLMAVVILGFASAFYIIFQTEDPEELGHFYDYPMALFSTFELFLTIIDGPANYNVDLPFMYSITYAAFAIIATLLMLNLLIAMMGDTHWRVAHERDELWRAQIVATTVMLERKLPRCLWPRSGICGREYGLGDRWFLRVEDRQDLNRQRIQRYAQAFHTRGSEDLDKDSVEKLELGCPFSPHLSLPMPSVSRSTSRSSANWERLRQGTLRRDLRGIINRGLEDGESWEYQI

[2] = target: T1, human TRPV6b expressed in LnCaP cells …

B1: SorC27 (peptide)
peptide: EGKLSSNDTEGGLCKEFLHPSKVDLPR
modifications: not checked
B1 gave an inhibition constant of calcium current (whole-cell patch clamp) [1] of 100 nM and a Kd [2] of 0.14 µM.

B2: SorC13 (peptide)
peptide: KEFLHPSKVDLPR
modifications: not checked
B2 was tested, and the inhibition constant of calcium current (whole-cell patch clamp) [1] was 100 nM and the Kd [2] was 0.1 µM.
